Source: patent US20210309747A1 (I MAB BIOPHARMA US, published 2021)
Numbering of substitutions follows the chain as printed.

B1: B06-01 (antibody, V domains shown)
VH: not shown
VL: DIQMTQSPSSLSASVGDRVTITCRASQGISSYLAWYQQKPGKAPKLLIYAASTLQSGVPDRFSGSGSGTDFTLTISSLQAEDVAVYYCQQYLSVPYTFGQGTKVEIK
B2: B06-02 (antibody, V domains shown)
VH: not shown
VL: B1 VL
B3: B06-03 (antibody, V domains shown)
VH: not shown
VL: B1 VL
B4: B12 (antibody, V domains shown)
VH: QVQLLESGGGLVQPGGSLRLSCAASGFTFSSYWMSWVRQAPGKGLEWVANIKQDGSEKYYVDSVKGRFTISRDNAKNSLYLQMNSLRAEDTAVYYCARVALWDDAFDIWGQGTMVTVSA
VL: NIQLTQSPSTLSASVGDRVIITCRASRGISSWLAWYQQKPGKAPNLLISKASSLESGVPSRFSGSGSGTDFTLTISSLQPEDFATYYCQQSSSIPLTFGGGTKVEIK
notes: Fab phage clone converted into full-length IgG; also called 67C1-9
B5: B12-03 (antibody, V domains shown)
VH: B4 VH with D54E, S63A, A119S
VL: B4 VL with N1D, L4M
B6: B16-01 (antibody, V domains shown)
VH: B4 VH with E6D, A119S
VL: DIQMTQSPSSLSASVGDRVTITCRASQSISSWLAWYQQKPGKAPKLLIYKASSLESGVPSRFSGSGSGTEFTLTISSLQPDDFATYYCQHSNSLPLTFGGGTKVEIK
B7: B12-02 (antibody, V domains shown)
VH: B4 VH with D54E, A119S
VL: B4 VL with N1D, L4M
B8: B06 (antibody, V domains shown)
VH: not shown
VL: B1 VL
notes: Fab phage clone converted into full-length IgG; also called 67A3-40
B9: B07 (antibody, V domains shown)
VH: B4 VH with Q1E, A100C, L101G, W102Y
VL: B6 VL with D1N, Q6H, S10T, T22S, S31T, E70D, D81E, H90Q, N92Y, L94I
notes: Fab phage clone converted into full-length IgG; also called 67C1-5
B10: B16 (antibody, V domains shown)
VH: B4 VH with E6D
VL: B6 VL
notes: Fab phage clone converted into full-length IgG; also called 67C3-10
B11: B04 (antibody, V domains shown)
VH: B4 VH with E6D, V99T, A100M
VL: DIQLTQSPSTLSASVGDRVTITCRASESISSWLAWYQQKPGKVPKLLIYKASSLESGVPSRFSGSGSGTDFTLTISSLQPEDFATYYCQQSYSTPPTFGQGTKVEIK
notes: Fab phage clone converted into full-length IgG; also called 67A3-15
B12: B10 (antibody, V domains shown)
VH: QVQLVQSGGGLVQPGGSLRLSCAASGFTFSSYWMSWVRQAPGKGLEWVANIKQDGSEKYYVDSVKGRFTISRDNAKNSLFLQMNSLGAEDTAMYYCARATVKYGGDDAFDIWGQGTMVTVSA
VL: B11 VL with D1N, E27Q, S31D, V43A, K45N, Y92F, P96F, Q100P, E105D
notes: Fab phage clone converted into full-length IgG; also called 67C3-14
B13: B11 (antibody, V domains shown)
VH: EVQLLESGAEVKKPGSSVKVSCKASGGTFSSYAISWVRQAPGQGLEWMGGIIPIFGTANYAQKFQGRVTITADESTSTAYMELSSLRSEDTAVYYCARRTDSYGYSDAFDIWGQGTMVTVSA
VL: not shown
notes: Fab phage clone converted into full-length IgG; also called 67C3-17
B14: B08 (antibody, V domains shown)
VH: EVQLLESGGGLVQPGGSLRLSCVGSGFTFSDHYMDWVRQAPGKGLEWVSSISSSSSYIYYADSVKGRFTISRDNAKNSLYLQMNSLRAEDTAVYYCARGRVGATNRFGMDVWGQGTMVTVSA
VL: DIQMIQSPSSVSASVGDRVTITCRASESISRWLAWYQQKPGKAPKLLIYAASNLESGVPSRFSGSGSGTEFTLTISSLQPEDFATYYCQQAESFPSFGQGTRLEIK
notes: Fab phage clone converted into full-length IgG; also called 67C2-1
B15: B02 (antibody, V domains shown)
VH: QVQLLESGGGLVKPGGSLRLSCAASGFTFSTYIINWVRQAPGKGLEWVSSVAASGDYAYYANSVKGRFTISRDNSKNTLYLQMNSLRAEDTAVYYCARDRSSGYYLSPNDAFDIWGQGTMVTVSA
VL: NIQLTQSPSSLSASLGDRVTITCRASQTISRYLNWYQQKPGKAPELLIYATSSLQSGVPSRFSGSGSGTDFTLTISSLQPEDFATYYCQQSYSTPTTFGGGTKVEIK
notes: Fab phage clone converted into full-length IgG; also called 67A2-20
B16: B01 (antibody, V domains shown)
VH: EVQLLESGGGLVQPGGSLRLSCAASGFTLSSHWLAWVRQAPGKGLEWVASIHQDASLEFYVDSVEGRFTISRDNSKRSLFLQMNNLRVEDTAVYYCARGDNQFDNWGQGTLVTVSA
VL: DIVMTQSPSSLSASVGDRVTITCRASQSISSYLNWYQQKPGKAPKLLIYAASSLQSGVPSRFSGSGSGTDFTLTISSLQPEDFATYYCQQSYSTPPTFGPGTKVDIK
notes: Fab phage clone converted into full-length IgG; also called 67A3-5
B17: B14 (antibody, V domains shown)
VH: B4 VH with Q1E, L11E, G16R, T28S, Q53E, A100V, L101R, W102F, D103N
VL: NIQLTQSPSSVSASVGDRVTITCRASQGISSWLAWYQQKPGKAPKLLIYAASSLQSGVPSRFSGSGSGTDFTLTISSLQPEDFATYYCQQANSFPFTFGPGTKVDIK
notes: Fab phage clone converted into full-length IgG; also called 67C2-19
B18: B09 (antibody, V domains shown)
VH: B4 VH with Q1E, V99E, A100D, L101F, D103S, D104G, A105Y, F106Q, I108V
VL: not shown
notes: Fab phage clone converted into full-length IgG; also called 67C2-9
B19: B13 (antibody, V domains shown)
VH: B12 VH with Q1E, V5L, Q6E, F80Y, G87R, M93V, Y95F, A99S, G105A, T116A
VL: B11 VL with D1N, L4M, E27Q, V43A, E55Q, P96F, Q100P, E105D
notes: Fab phage clone converted into full-length IgG; also called 67C1-10
B20: B05 (antibody, V domains shown)
VH: EVQLVETGRGLVQPGRSLRLSCAASGFTFSSYWMSWVRQAPGKGLEWVANIKQDGSEKYYVDSVKGRFTISRDNAKNSLYLQMNSLRAEDTAVYYCARGGYYGDDDAFDIWGQGTMVTVSA
VL: B6 VL with D1N, S10T, D81E, H90Q, S91T, N92Y, G100Q, K103R, E105G
notes: Fab phage clone converted into full-length IgG; also called 67A3-21
B21: B03 (antibody, V domains shown)
VH: B4 VH with Q1E, T28S, Q53E, A100V, L101R, W102F, D103N
VL: DIQLTQSPSTLSASVGDRVTITCRASQSIDTWLAWYQQKPGKAPKLLIHNASTLKSGVSSRFSGSGSGTDFTLTISSLQPEDFATYYCQQSYSTPLTFGGGTKVEIK
notes: Fab phage clone converted into full-length IgG; also called 67A3-14
B22: B17 (antibody, V domains shown)
VH: EVQLLESGGGLVQPGGSLRLSCAASGFTFSSNAMSWVRQAPGKGLEWVSAVGGGGVNTYYADSVKGRFTISRDNSKNTLYLQMNSLRAEDTAVYYCAKGEKGYSNSCIDYWGQGTLVTVSA
VL: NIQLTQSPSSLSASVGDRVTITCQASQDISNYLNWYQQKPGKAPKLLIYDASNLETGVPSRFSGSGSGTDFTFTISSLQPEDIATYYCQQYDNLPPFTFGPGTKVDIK
notes: Fab phage clone converted into full-length IgG; also called 67C2-23

These binders were tested against T1, human PD-L1 on Raji cells (human, UniProt Q9NZQ7 19-290) (assay: cell-based or functional assay).
T1 sequence (Q9NZQ7 19-290): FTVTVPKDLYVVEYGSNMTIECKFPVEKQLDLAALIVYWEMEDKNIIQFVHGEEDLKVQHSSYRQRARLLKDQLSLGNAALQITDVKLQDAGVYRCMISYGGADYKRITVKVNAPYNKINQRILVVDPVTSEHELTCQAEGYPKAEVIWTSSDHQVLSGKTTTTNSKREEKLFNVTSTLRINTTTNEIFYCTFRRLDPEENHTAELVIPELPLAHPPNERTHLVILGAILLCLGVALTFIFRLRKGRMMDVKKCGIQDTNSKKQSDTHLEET

Binder | EC50 (NF-AT-luciferase RLU)
B1 | 0.383 nM
B2 | 0.97 nM
B3 | 0.907 nM
B4 | 0.545 nM
B5 | 0.517 nM
B6 | 0.611 nM
B7 | 0.497 nM

Molecular target: T1, human PD-L1 on Raji cells
Test: cell-based or functional assay
Remark: another data set of the same source

Binder | EC50 (NF-AT-luciferase RLU)
B8 | 0.516 nM
B9 | 1.02 nM
B10 | 1.05 nM
B4 | 0.439 nM
B11 | 2.34 nM
B12 | 2.22 nM

Each binder was assayed against T2, recombinant human PD-L1 (Sino Biological, Cat#: 10084-H08H) (human, UniProt Q9NZQ7 19-238) (assay: ELISA, plate coated with human PD-L1 at 1 ug/ml, detection with goat anti-human IgG-HRP, OD450).
T2 construct: Bought protein; also called human PD-L1 protein
T2 sequence (Q9NZQ7 19-238 limits assumed): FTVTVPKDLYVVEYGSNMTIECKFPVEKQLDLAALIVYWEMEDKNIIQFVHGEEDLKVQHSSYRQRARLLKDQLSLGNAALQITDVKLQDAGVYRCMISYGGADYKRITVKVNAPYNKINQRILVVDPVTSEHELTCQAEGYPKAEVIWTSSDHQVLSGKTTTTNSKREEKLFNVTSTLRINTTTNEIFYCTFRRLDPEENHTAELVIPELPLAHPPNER
Experimental: To evaluate antigen binding activity, the antibodies were subjected to ELISA test. Briefly, microtiter plates were coated with human PD-L1 protein at 1 μg/ml in PBS, 100 μl/well at 4° C. overnight, then blocked with 100 μl/well of 1% BSA. 4-fold dilutions of humanized antibodies starting from 10 μg/ml were added to each well and incubated for 1-2 hours at RT. The plates were washed with PBS/Tween and then incubate with goat-anti-human IgG antibody conjugated with Horse Radish Peroxidase (HRP) for 1 hour at RT. After washing, the plates were developed with TMB substrate and analyzed by spectrophotometer at OD 450 nm.

Binder | EC50
B13 | 0.294 nM
B14 | 1.63 nM
B15 | 15.5 nM
B16 | 18 nM
B8 | 0.236 nM
B9 | 0.124 nM
B10 | 0.147 nM
B17 | 0.222 nM
B18 | 14.3 nM
B4 | 0.142 nM
B11 | 0.19 nM
B19 | 0.13 nM
B20 | 0.625 nM
B21 | 1.28 nM
B12 | 0.31 nM
B22 | 36.1 nM
